The supplement of paper PMC5998384

Tests used:
HeLa Kyoto [1] = assay: solubility in G1/S (NP-40 vs SDS abundance) (log2 ratio); higher = more soluble; details: cell cycle stage: G1/S
HeLa Kyoto [2] = assay: melting temperature (median over replicates), in situ; higher = more thermally stable
HeLa Kyoto [3] = assay: solubility change mitosis vs G1/S (difference of NP-40 vs SDS log2 ratios) (log2 ratio difference); higher = more soluble in mitosis
HeLa Kyoto [4] = assay: thermal stability score vs G1/S (z-score of summed log2 fold changes over temperatures); higher = more thermally stable than in G1/S
[5] = cell cycle stage: early G1 (4.5 h after nocodazole release)
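Wherever melting temperature (median over replicates), in situ is given: HeLa Kyoto cells synchronized by double thymidine or nocodazole block, proteins quantified by TMT10plex mass spectrometry, three independent biological replicates.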
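Wherever solubility change mitosis vs G1/S (difference of NP-40 vs SDS log2 ratios) is given: synchronized HeLa Kyoto cells (double thymidine block for G1/S, nocodazole release for mitosis), protein amounts in NP-40 versus SDS lysates quantified by mass spectrometry, three biological replicates.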
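Wherever solubility in G1/S (NP-40 vs SDS abundance) is given: HeLa Kyoto cells arrested at G1/S by double thymidine block, proteins quantified by TMT10plex mass spectrometry in mild NP-40 versus SDS extracts, three biological replicates.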
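Wherever thermal stability score vs G1/S (z-score of summed log2 fold changes over temperatures) is given: synchronized HeLa Kyoto cells, proteins quantified by TMT10plex mass spectrometry, three biological replicates, mitosis taken 0.5 h after nocodazole release, G1/S directly after double thymidine block.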

| Sequence | solubility in G1/S (log2) (HeLa Kyoto [1]) | melting temperature (HeLa Kyoto [2]; cell cycle stage: G1/S) [°C] | melting temperature (HeLa Kyoto [2]; cell cycle stage: mitosis) [°C] | solubility change mitosis (log2) (HeLa Kyoto [3]) | thermal stability score (HeLa Kyoto [4]; [5]) | thermal stability score (HeLa Kyoto [4]; cell cycle stage: mitosis) |
| --- | --- | --- | --- | --- | --- | --- |
| MERSPGEGPSPSPMDQPSAPSDPTDQPPAAHAKPDPGSGGQPAGPGAAGEALAVLTSFGRRLLVLIPVYLAGAVGLSVGFVLFGLALYLGWRRVRDEKERSLRAARQLLDDEEQLTAKTLYMSHRELPAWVSFPDVEKAEWLNKIVAQVWPFLGQYMEKLLAETVAPAVRGSNPHLQTFTFTRVELGEKPLRIIGVKVHPGQRKEQILLDLNISYVGDVQIDVEVKKYFCKAGVKGMQLHGVLRVILEPLIGDLPFVGAVSMFFIRRPTLDINWTGMTNLLDIPGLSSLSDTMIMDSIAAFLVLPNRLLVPLVPDLQDVAQLRSPLPRGIIRIHLLAARGLSSKDKYVKGLIEGKSDPYALVRLGTQTFCSRVIDEELNPQWGETYEVMVHEVPGQEIEVEVFDKDPDKDDFLGRMKLDVGKVLQASVLDDWFPLQGGQGQVHLRLEWLSLLSDAEKLEQVLQWNWGVSSRPDPPSAAILVVYLDRAQDLPLKKGNKEPNPMVQLSIQDVTQESKAVYSTNCPVWEEAFRFFLQDPQSQELDVQVKDDSRALTLGALTLPLARLLTAPELILDQWFQLSSSGPNSRLYMKLVMRILYLDSSEICFPTVPGCPGAWDVDSENPQRGSSVDAPPRPCHTTPDSQFGTEHVLRIHVLEAQDLIAKDRFLGGLVKGKSDPYVKLKLAGRSFRSHVVREDLNPRWNEVFEVIVTSVPGQELEVEVFDKDLDKDDFLGRCKVRLTTVLNSGFLDEWLTLEDVPSGRLHLRLERLTPRPTAAELEEVLQVNSLIQTQKSAELAAALLSIYMERAEDLPLRKGTKHLSPYATLTVGDSSHKTKTISQTSAPVWDESASFLIRKPHTESLELQVRGEGTGVLGSLSLPLSELLVADQLCLDRWFTLSSGQGQVLLRAQLGILVSQHSGVEAHSHSYSHSSSSLSEEPELSGGPPHITSSAPELRQRLTHVDSPLEAPAGPLGQVKLTLWYYSEERKLVSIVHGCRSLRQNGRDPPDPYVSLLLLPDKNRGTKRRTSQKKRTLSPEFNERFEWELPLDEAQRRKLDVSVKSNSSFMSRERELLGKVQLDLAETDLSQGVARWYDLMDNKDKGSS [ESYT1] | 0.0161 | 49.1 | 50.1 | -0.113 | 2.16 | 4.68 |
| MESAGLEQLLRELLLPDTERIRRATEQLQIVLRAPAALPALCDLLASAADPQIRQFAAVLTRRRLNTRWRRLAAEQRESLKSLILTALQRETEHCVSLSLAQLSATIFRKEGLEAWPQLLQLLQHSTHSPHSPEREMGLLLLSVVVTSRPEAFQPHHRELLRLLNETLGEVGSPGLLFYSLRTLTTMAPYLSTEDVPLARMLVPKLIMAMQTLIPIDEAKACEALEALDELLESEVPVITPYLSEVLTFCLEVARNVALGNAIRIRILCCLTFLVKVKSKALLKNRLLPPLLHTLFPIVAAEPPPGQLDPEDQDSEEEELEIELMGETPKHFAVQVVDMLALHLPPEKLCPQLMPMLEEALRSESPYQRKAGLLVLAVLSDGAGDHIRQRLLPPLLQIVCKGLEDPSQVVRNAALFALGQFSENLQPHISSYSREVMPLLLAYLKSVPLGHTHHLAKACYALENFVENLGPKVQPYLPELMECMLQLLRNPSSPRAKELAVSALGAIATAAQASLLPYFPAIMEHLREFLLTGREDLQPVQIQSLETLGVLARAVGEPMRPLAEECCQLGLGLCDQVDDPDLRRCTYSLFAALSGLMGEGLAPHLEQITTLMLLSLRSTEGIVPQYDGSSSFLLFDDESDGEEEEELMDEDVEEEDDSEISGYSVENAFFDEKEDTCAAVGEISVNTSVAFLPYMESVFEEVFKLLECPHLNVRKAAHEALGQFCCALHKACQSCPSEPNTAALQAALARVVPSYMQAVNRERERQVVMAVLEALTGVLRSCGTLTLKPPGRLAELCGVLKAVLQRKTACQDTDEEEEEEDDDQAEYDAMLLEHAGEAIPALAAAAGGDSFAPFFAGFLPLLVCKTKQGCTVAEKSFAVGTLAETIQGLGAASAQFVSRLLPVLLSTAQEADPEVRSNAIFGMGVLAEHGGHPAQEHFPKLLGLLFPLLARERHDRVRDNICGALARLLMASPTRKPEPQVLAALLHALPLKEDLEEWVTIGRLFSFLYQSSPDQVIDVAPELLRICSLILADNKIPPDTKAALLLLLTFLAKQHTDSFQAALGSLPVDKAQELQAVLGLS [IPO4] | -0.204 | 49.6 | 49.9 | -0.104 | 0.678 | 2.82 |
| MESEQLFHRGYYRNSYNSITSASSDEELLDGAGVIMDFQTSEDDNLLDGDTAVGTHYTMTNGGSINSSTHLLDLLDEPIPGVGTYDDFHTIDWVREKCKDRERHRRINSKKKESAWEMTKSLYDAWSGWLVVTLTGLASGALAGLIDIAADWMTDLKEGICLSALWYNHEQCCWGSNETTFEERDKCPQWKTWAELIIGQAEGPGSYIMNYIMYIFWALSFAFLAVSLVKVFAPYACGSGIPEIKTILSGFIIRGYLGKWTLMIKTITLVLAVASGLSLGKEGPLVHVACCCGNIFSYLFPKYSTNEAKKREVLSAASAAGVSVAFGAPIGGVLFSLEEVSYYFPLKTLWRSFFAALVAAFVLRSINPFGNSRLVLFYVEYHTPWYLFELFPFILLGVFGGLWGAFFIRANIAWCRRRKSTKFGKYPVLEVIIVAAITAVIAFPNPYTRLNTSELIKELFTDCGPLESSSLCDYRNDMNASKIVDDIPDRPAGIGVYSAIWQLCLALIFKIIMTVFTFGIKVPSGLFIPSMAIGAIAGRIVGIAVEQLAYYHHDWFIFKEWCEVGADCITPGLYAMVGAAACLGGVTRMTVSLVVIVFELTGGLEYIVPLMAAVMTSKWVGDAFGREGIYEAHIRLNGYPFLDAKEEFTHTTLAADVMRPRRNDPPLAVLTQDNMTVDDIENMINETSYNGFPVIMSKESQRLVGFALRRDLTIAIESARKKQEGIVGSSRVCFAQHTPSLPAESPRPLKLRSILDMSPFTVTDHTPMEIVVDIFRKLGLRQCLVTHNGRLLGIITKKDILRHMAQTANQDPASIMFN [CLCN3] | -0.354 | 54.9 | 54.9 | -0.0871 | -0.456 | -0.317 |
| MESMLNKLKSTVTKVTADVTSAVMGNPVTREFDVGRHIASGGNGLAWKIFNGTKKSTKQEVAVFVFDKKLIDKYQKFEKDQIIDSLKRGVQQLTRLRHPRLLTVQHPLEESRDCLAFCTEPVFASLANVLGNWENLPSPISPDIKDYKLYDVETKYGLLQVSEGLSFLHSSVKMVHGNITPENIILNKSGAWKIMGFDFCVSSTNPSEQEPKFPCKEWDPNLPSLCLPNPEYLAPEYILSVSCETASDMYSLGTVMYAVFNKGKPIFEVNKQDIYKSFSRQLDQLSRLGSSSLTNIPEEVREHVKLLLNVTPTVRPDADQMTKIPFFDDVGAVTLQYFDTLFQRDNLQKSQFFKGLPKVLPKLPKRVIVQRILPCLTSEFVNPDMVPFVLPNVLLIAEECTKEEYVKLILPELGPVFKQQEPIQILLIFLQKMDLLLTKTPPDEIKNSVLPMVYRALEAPSIQIQELCLNIIPTFANLIDYPSMKNALIPRIKNACLQTSSLAVRVNSLVCLGKILEYLDKWFVLDDILPFLQQIPSKEPAVLMGILGIYKCTFTHKKLGITKEQLAGKVLPHLIPLSIENNLNLNQFNSFISVIKEMLNRLESEHKTKLEQLHIMQEQQKSLDIGNQMNVSEEMKVTNIGNQQIDKVFNNIGADLLTGSESENKEDGLQNKHKRASLTLEEKQKLAKEQEQAQKLKSQQPLKPQVHTPVATVKQTKDLTDTLMDNMSSLTSLSVSTPKSSASSTFTSVPSMGIGMMFSTPTDNTKRNLTNGLNANMGFQTSGFNMPVNTNQNFYSSPSTVGVTKMTLGTPPTLPNFNALSVPPAGAKQTQQRPTDMSALNNLFGPQKPKVSMNQLSQQKPNQWLNQFVPPQGSPTMGSSVMGTQMNVIGQSAFGMQGNPFFNPQNFAQPPTTMTNSSSASNDLKDLFG [SCYL2] | 0.129 | 52.9 | 53.5 | -0.174 | 0.219 | 0.842 |
| MESPASSQPASMPQSKGKSKRKKDLRISCMSKPPAPNPTPPRNLDSRTFITIGDRNFEVEADDLVTISELGRGAYGVVEKVRHAQSGTIMAVKRIRATVNSQEQKRLLMDLDINMRTVDCFYTVTFYGALFREGDVWICMELMDTSLDKFYRKVLDKNMTIPEDILGEIAVSIVRALEHLHSKLSVIHRDVKPSNVLINKEGHVKMCDFGISGYLVDSVAKTMDAGCKPYMAPERINPELNQKGYNVKSDVWSLGITMIEMAILRFPYESWGTPFQQLKQVVEEPSPQLPADRFSPEFVDFTAQCLRKNPAERMSYLELMEHPFFTLHKTKKTDIAAFVKEILGEDS [MAP2K3] | -0.00226 | 48.8 | 50.1 | -0.112 | 1.81 | 2.08 |
